{
  "source": "patent US12187779B2",
  "about": "(dated 2025)",
  "binders": {"B1": {"name": "E6 TCR (TCR, V domains shown)", "Valpha": "GQQLNQSPQSMFIQEGEDVSMNCTSSSIFNTWLWYKQDPGEGPVLLIALYKAGELTSNGRLTAQFGITRKDSFLNISASIPSDVGIYFCAGHPSSNSGYALNFGKGTSLLVTP", "Vbeta": "GAGVSQSPRYKVTKRGQDVALRCDPISGHVSLYWYRQALGQGPEFLTYFNYEAQQDKSGLPNDRFSAERPEGSISTLTIQRTEQRDSAMYRCASSSQTGARTDTQYFGPGTRLTVL"}},
  "target": "T1, HPV 16 E6 peptide on HLA-A*02:01 (human)",
  "T1 peptide": "TIHDIILECV",
  "test": "multimer staining",
  "data": [
    {"binder": "B1", "values": [
      {"measurement": "binding result", "value": "recognises"}
    ]}
  ]
}
